Three molecules from patent publication US20090233074A1 (ARTIFICIAL CELL TECHNOLOGIES, published 2009) can be followed below.

Test [1] addresses T1, LN3 (long negative designed polypeptide).
T1 construct: Synthetic 48-residue polyanion; also called negative 48-residue peptide
T1 peptide: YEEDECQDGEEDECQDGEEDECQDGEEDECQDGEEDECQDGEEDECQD
Description: QCM, electrostatic layer-by-layer adsorption of oppositely charged peptides, pH 7.4, 1 mM DTT (pairs named in paragraph 153). As for the experimental part:
(§1) The polypeptide molecular weight was verified by electrospray mass spectrometry. Peptide purity was greater than 70%. The polypeptide buffer was 10 mM sodium phosphate or 10 mM Tris-HCl, 1 mM DTT, 0.1 mM sodium azide, pH 7.4. All chemicals other than polypeptides were purchased from Sigma-Aldrich (USA).
(§2) Resonators were rinsed for 1 min. in pure water between subsequent adsorption cycles (removing perhaps 10-15% of weakly adsorbed material) and dried in a stream of gaseous N₂. Then the mass of the deposited peptide was measured indirectly by QCM. The mass measurement includes some water, despite drying, and low mass ions like K⁺, Na⁺, and Cl⁻. Partial interpenetration of neighboring layers of peptide is probable (see Decher, G. (1997) Science 227:1232; Schmitt et al. (1993) Macromolecules 26:7058; and Korneev et al. (1995) Physica B 214:954); this could be important for the efficiency of disulfide “locking.”
(§3) After adsorption of the polypeptide and rinsing and drying the QCM resonator, the resonant frequency of the resonator was measured. This enabled calculation of the frequency shift on adsorption and change in adsorbed mass. A decrease in frequency indicates an increase in adsorbed mass. […] Each of these combinations involved one negative polypeptide and one positive polypeptide, as required by ELBL.

The target of test [2] is T2, de novo-designed cysteine-containing negative polypeptide (SEQ ID NO: 6).
T2 peptide: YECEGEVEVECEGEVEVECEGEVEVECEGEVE
Description: QCM, layer-by-layer assembly, 10 mM Tris-HCl, 10 mM DTT, pH 7.4, 2 mg/mL peptide. As for the experimental part: All assembly experiments using QCM were conducted in the same conditions, except that the samples to undergo oxidation were dried using air instead of nitrogen gas. The assembly conditions were 10 mM Tris-HCl, 10 mM DTT, pH 7.4. The nominal peptide concentration was 2 mg/mL. The number of layers formed was 14.

Test [3] has as its target T3, SN1 (short negative designed polypeptide).
T3 construct: Synthetic 32-residue polyanion built from a 7-residue motif of human complement C3, with Gly linkers and an N-terminal Tyr
T3 peptide: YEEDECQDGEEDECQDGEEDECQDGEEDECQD
Description: QCM, electrostatic layer-by-layer adsorption of oppositely charged peptides, pH 7.4, 1 mM DTT (pairs named in paragraph 153). On the procedure:
as §1, §2, §3

B1: LP4 (long positive designed polypeptide) (peptide)
peptide: YRRRRSVQGRRRRSVQGRRRRSVQGRRRRSVQGRRRRSVQGRRRRSVQ
notes: Synthetic 48-residue polycation
For B1, in test [1], the binding result was “binds”.

B2: de novo-designed cysteine-containing positive polypeptide (SEQ ID NO: 5) (peptide)
peptide: YKCKGKVKVKCKGKVKVKCKGKVKVKCKGKVK
Turning to B2, the binding result in test [2] is on record as “binds”.

B3: SP2 (short positive designed polypeptide) (peptide)
peptide: YRRRRSVQGRRRRSVQGRRRRSVQGRRRRSVQ
notes: Synthetic 32-residue polycation built from a 7-residue motif of human lactotransferrin, with Gly linkers and an N-terminal Tyr
On to B3, for which the binding result in test [1] and in test [3] was “binds” in each case.
